Assay results published in patent publication US20140178373A1 (TORAY INDUSTRIES, published 2014).

T1: CAPRIN-1 protein on the cell membrane surface of human cancer cell lines (human, UniProt Q14444 2-709)
T1 sequence (looked up): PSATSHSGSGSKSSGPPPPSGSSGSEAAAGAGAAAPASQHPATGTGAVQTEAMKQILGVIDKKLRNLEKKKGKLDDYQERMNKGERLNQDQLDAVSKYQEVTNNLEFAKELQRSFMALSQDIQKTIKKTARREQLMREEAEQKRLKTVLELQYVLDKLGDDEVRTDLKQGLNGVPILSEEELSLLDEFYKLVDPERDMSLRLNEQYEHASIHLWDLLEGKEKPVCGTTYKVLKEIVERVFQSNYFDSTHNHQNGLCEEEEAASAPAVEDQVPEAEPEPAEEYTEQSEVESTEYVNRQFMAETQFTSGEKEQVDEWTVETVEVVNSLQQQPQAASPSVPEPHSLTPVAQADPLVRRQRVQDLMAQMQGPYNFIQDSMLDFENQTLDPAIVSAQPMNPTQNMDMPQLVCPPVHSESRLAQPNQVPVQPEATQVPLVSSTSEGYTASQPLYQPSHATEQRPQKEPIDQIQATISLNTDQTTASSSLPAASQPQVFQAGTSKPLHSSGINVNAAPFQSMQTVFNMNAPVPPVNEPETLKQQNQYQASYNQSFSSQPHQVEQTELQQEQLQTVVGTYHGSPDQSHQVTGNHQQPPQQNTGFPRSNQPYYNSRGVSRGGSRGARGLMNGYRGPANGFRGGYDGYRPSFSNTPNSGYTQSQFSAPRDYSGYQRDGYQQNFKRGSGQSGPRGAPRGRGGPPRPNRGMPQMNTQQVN


target: T1, CAPRIN-1 protein on the cell membrane …; assay: cell-based or functional assay

Row | Binder | cytotoxic activity (ADCC) against MCF7, HCT-116, MIAPaCa-2, Caki-2 and QG56 [%] | cytotoxic activity (ADCC) against all other cancer cells (19 further cell lines) [%]
1 | human-mouse chimeric comparative antibody 4 (antibody, human IgG1, kappa, V domains shown) VH: EVQLHQFGAELVKPGASVKISCKASGYTFTDYNMDWVKQSHGKSLEWIGDINPNYDSTSYNQKFKGKATLTVDKSSSTAYMELRSLTSEDTAVYYCARSRSYDYEGFAYWGQGTLVTVSA VL: SGDRVSLSCRASQSISNYLHWYQQKSHESPRLLIKYASQSISGIPSRFSGSGSGTDFTLSINSVETEDFGMYFCQQSNSWPYTFGAGTKLEIKQ | < 5 | < 4
2 | human-mouse chimeric comparative antibody 1 (antibody) heavy: not shown light: DIQMTQSPASLSASVGETVTITCRASGNIHNYLAWYQQKQGKSPQLLVYNAKTLADGVPSRFSGSGSGTQYSLKINSLQPEDFGSYYCQHFWSTLTFGAGTKLELKRTVAAPSVFIFPPSDEQLKSGTASVVCLLNNFYPREAKVQWKVDNALQSGNSQESVTEQDSKDSTYSLSSTLTLSKADYEKHKVYACEVTHQGLSSPVTKSFNRGEC | < 5 | < 4
3 | human-mouse chimeric comparative antibody 3 (antibody) heavy: not shown light: DIQLTQSPASLSASVGETVTITCRASGNIHNYLAWYQQKQGKSPQLLVYNAKTLADGVPSRFSGSGSGTQYSLKINSLQPEDFGSYYCQHFWSTLTFGGGTKLEIKQTVAAPSVFIFPPSDEQLKSGTASVVCLLNNFYPREAKVQWKVDNALQSGNSQESVTEQDSKDSTYSLSSTLTLSKADYEKHKVYACEVTHQGLSSPVTKSFNRGEC | < 5 | < 4
4 | human-mouse chimeric comparative antibody 7 (antibody, human IgG1, kappa, V domains shown) VH: LQESGAELARPGASVKLSCKASGYTFTSYWMQWVKQRPGQGLEWIGAIYPGDGDTRYTQKFKGKATLTADKSSSTAYMQLSSLASEDSAVYYCARGEYGNYFAYWGQGTTVTVSS VL: TSDASLGERVTITCKASQDINSYLSWFQQKPGKSPKTLIYRANRLVDGVPSRFSGSGSGQDYSLTISSLEYEDMGIYYCLQYDEFPLTFGGGTKLEIKQ | < 5 | < 4
